Assay results as given in publication PMC9482650, “Quantitative fragmentomics allow affinity mapping of interactomes” (Nature Communications, 2022).

Assays:
Assay in all cases: holdup assay
Set-up in all cases: key: below the threshold = too weak to quantify, mostly under pKd 3.1 to 4
HTRA2, O43464 = target: HTRA2, O43464
LAP2, Q96RT1 = target: LAP2, Q96RT1
NHERF4_2, Q86UT5 = target: NHERF4_2, Q86UT5
PCLO, Q9Y6V0 = target: T1, PCLO, Q9Y6V0
T1 sequence (Q9Y6V0 4491-4600, limits assumed, looked up): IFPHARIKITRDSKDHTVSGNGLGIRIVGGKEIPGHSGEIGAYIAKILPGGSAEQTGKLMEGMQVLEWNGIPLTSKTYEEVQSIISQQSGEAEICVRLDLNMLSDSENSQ

DLG4_2, P78352 = target: DLG4_2, P78352
PDZD2_2, O15018 = target: T2, PDZD2_2, O15018
T2 sequence (O15018 329-429, limits assumed, looked up): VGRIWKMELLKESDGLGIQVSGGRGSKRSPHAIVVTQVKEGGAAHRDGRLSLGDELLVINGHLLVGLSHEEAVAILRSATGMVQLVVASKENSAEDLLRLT

TX1BP3, O14907 = target: T3, TX1BP3, O14907
T3 sequence (O14907 10-122, limits assumed, looked up): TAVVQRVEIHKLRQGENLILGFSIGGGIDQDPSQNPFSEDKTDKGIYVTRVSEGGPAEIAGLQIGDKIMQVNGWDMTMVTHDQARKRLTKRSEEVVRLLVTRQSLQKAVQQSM

Inadl_9, Q8NI35 = target: Inadl_9, Q8NI35
SCRIB_3, Q14160 = target: SCRIB_3, Q14160
GOPC, Q9HD26 = target: GOPC, Q9HD26
PDLIM1, O00151 = target: PDLIM1, O00151
IL16_4, Q14005 = target: IL16_4, Q14005
DLG4_3, P78352 = target: DLG4_3, P78352
DLG3_1, Q92796 = target: T4, DLG3_1, Q92796
T4 sequence (Q92796 125-227, limits assumed, looked up): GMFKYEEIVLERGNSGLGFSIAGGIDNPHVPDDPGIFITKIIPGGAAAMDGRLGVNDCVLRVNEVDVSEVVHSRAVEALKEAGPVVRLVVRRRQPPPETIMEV

RAPGEF6, Q8TEU7 = target: T5, RAPGEF6, Q8TEU7
T5 sequence (Q8TEU7 525-625, limits assumed, looked up): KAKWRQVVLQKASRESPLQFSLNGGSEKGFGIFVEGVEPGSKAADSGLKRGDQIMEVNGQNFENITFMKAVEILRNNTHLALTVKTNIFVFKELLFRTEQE

Inadl_6, Q8NI35 = target: Inadl_6, Q8NI35
TIAM2, Q8IVF5 = target: T6, TIAM2, Q8IVF5
T6 sequence (Q8IVF5 885-986, limits assumed, looked up): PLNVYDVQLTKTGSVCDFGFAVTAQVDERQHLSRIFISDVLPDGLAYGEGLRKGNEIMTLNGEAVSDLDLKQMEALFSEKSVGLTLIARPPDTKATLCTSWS

HTRA3, P83110 = target: T7, HTRA3, P83110
T7 sequence (P83110 354-453, limits assumed, looked up): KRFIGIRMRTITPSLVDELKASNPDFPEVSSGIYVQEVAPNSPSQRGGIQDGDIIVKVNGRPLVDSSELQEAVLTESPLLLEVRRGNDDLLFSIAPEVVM

MAGI2_3, Q86UL8 = target: MAGI2_3, Q86UL8
LNX1_1, Q8TBB1 = target: LNX1_1, Q8TBB1
LIN7B, Q9HAP6 = target: T8, LIN7B, Q9HAP6
T8 sequence (Q9HAP6 88-185, limits assumed, looked up): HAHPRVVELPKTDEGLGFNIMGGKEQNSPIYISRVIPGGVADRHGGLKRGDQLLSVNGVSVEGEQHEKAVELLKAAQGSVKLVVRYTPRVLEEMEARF

FRMPD2_2, Q68DX3 = target: FRMPD2_2, Q68DX3
TJP2_1, Q9UDY2 = target: TJP2_1, Q9UDY2
TJP1_3, Q07157 = target: TJP1_3, Q07157
SNTG1, Q9NSN8 = target: T9, SNTG1, Q9NSN8
T9 sequence (Q9NSN8 52-150, limits assumed, looked up): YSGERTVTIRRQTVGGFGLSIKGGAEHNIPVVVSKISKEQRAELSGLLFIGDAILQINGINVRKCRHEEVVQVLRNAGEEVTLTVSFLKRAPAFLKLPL

FRMPD2_1, Q68DX3 = target: FRMPD2_1, Q68DX3
Inadl_1, Q8NI35 = target: Inadl_1, Q8NI35
GRIP2_4, Q9C0E4 = target: GRIP2_4, Q9C0E4
[1] = plain residues with an end cap or a label only (N-terminal biotin on a linker: ado-ado)
[2] = plain residues with an end cap or a label only (N-terminal biotin on a linker: ahx)
[3] = plain residues with an end cap or a label only (N-terminal biotin on a linker: (peg)3)

FRMPD2_1, Q68DX3, sequence (Q68DX3 770-861): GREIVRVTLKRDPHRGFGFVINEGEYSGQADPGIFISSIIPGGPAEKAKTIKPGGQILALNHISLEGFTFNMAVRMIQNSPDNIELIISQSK
LAP2, Q96RT1, sequence (Q96RT1 other isoform, or with tags, fused parts or gaps): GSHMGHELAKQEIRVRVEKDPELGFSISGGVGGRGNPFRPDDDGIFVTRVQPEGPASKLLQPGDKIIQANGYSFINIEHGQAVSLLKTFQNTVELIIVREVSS
TJP1_3, Q07157, sequence (Q07157 416-512): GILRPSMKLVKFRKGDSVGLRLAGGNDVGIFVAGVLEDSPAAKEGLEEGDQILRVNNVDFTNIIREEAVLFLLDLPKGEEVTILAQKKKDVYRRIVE
DLG4_3, P78352, sequence (P78352 306-403): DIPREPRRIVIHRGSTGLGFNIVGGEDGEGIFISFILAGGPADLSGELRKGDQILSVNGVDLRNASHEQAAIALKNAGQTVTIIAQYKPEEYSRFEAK
DLG4_2, P78352, sequence (P78352 155-259): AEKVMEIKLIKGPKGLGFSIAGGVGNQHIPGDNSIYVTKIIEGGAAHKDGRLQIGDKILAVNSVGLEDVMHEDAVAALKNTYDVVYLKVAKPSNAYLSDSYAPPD
MAGI2_3, Q86UL8, sequence (Q86UL8 600-682): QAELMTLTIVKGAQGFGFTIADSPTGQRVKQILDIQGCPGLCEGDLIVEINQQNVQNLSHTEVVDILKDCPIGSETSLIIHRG
PDLIM1, O00151, sequence (O00151 1-87): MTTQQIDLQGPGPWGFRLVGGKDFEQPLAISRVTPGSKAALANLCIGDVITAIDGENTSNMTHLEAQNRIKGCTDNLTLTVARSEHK
Inadl_6, Q8NI35, sequence (Q8NI35 1058-1167): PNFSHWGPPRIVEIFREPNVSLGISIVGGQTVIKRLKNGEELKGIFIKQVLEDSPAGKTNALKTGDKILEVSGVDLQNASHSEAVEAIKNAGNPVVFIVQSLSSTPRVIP
FRMPD2_2, Q68DX3, sequence (Q68DX3 944-1038): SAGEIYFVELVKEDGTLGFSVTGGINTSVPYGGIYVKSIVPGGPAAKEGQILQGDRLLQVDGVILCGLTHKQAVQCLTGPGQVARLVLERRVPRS
LNX1_1, Q8TBB1, sequence (Q8TBB1 261-371): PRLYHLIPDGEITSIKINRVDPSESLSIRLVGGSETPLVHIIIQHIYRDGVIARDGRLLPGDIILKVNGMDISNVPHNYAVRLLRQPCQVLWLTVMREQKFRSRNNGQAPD
NHERF4_2, Q86UT5, sequence (Q86UT5 220-308): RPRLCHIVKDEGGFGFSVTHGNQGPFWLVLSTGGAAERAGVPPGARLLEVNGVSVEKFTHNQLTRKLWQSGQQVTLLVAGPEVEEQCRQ
SCRIB_3, Q14160, sequence (Q14160 999-1103): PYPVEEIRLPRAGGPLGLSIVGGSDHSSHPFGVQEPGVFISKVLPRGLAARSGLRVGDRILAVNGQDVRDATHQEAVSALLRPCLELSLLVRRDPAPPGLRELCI
Inadl_9, Q8NI35, sequence (Q8NI35 1530-1615): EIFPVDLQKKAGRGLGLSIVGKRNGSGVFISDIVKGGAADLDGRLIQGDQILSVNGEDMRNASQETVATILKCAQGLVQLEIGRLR
HTRA2, O43464, sequence (O43464 355-458): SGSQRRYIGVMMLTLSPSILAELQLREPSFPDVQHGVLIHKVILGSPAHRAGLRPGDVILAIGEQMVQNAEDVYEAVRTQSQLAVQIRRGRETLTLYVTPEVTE
IL16_4, Q14005, sequence (Q14005 1229-1329): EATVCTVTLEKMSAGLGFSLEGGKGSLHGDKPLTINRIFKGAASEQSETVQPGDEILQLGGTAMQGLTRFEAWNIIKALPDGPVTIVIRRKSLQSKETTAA
GRIP2_4, Q9C0E4, sequence (Q9C0E4 446-548): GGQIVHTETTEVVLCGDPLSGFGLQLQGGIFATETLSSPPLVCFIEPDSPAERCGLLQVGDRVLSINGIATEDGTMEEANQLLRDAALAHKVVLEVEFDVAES
TJP2_1, Q9UDY2, sequence (Q9UDY2 24-128): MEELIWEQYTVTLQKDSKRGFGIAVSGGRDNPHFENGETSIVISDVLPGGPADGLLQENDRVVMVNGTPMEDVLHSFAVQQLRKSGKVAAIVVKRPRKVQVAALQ
Inadl_1, Q8NI35, sequence (Q8NI35 113-229): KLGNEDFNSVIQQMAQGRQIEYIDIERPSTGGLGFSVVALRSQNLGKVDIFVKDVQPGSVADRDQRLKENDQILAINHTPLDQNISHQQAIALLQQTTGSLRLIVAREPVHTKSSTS

With QRPYRRGSEI [KCNJ18, B7U540] the pKd (HTRA2, O43464; [1]) was “below the threshold”, the pKd (LAP2, Q96RT1; [1]) was 4.09 and the pKd (NHERF4_2, Q86UT5; [1]) was “below the threshold”. The pKd (PCLO, Q9Y6V0; [1]) was “below the threshold”, the pKd (DLG4_2, P78352; [1]) was 3.66 and the pKd (PDZD2_2, O15018; [1]) was 4.79. The pKd (TX1BP3, O14907; [1]) was “below the threshold”, the pKd (Inadl_9, Q8NI35; [1]) was “below the threshold” and the pKd (SCRIB_3, Q14160; [1]) was 4.05. The pKd (GOPC, Q9HD26; [1]) was “below the threshold”, the pKd (PDLIM1, O00151; [1]) was “below the threshold” and the pKd (IL16_4, Q14005; [1]) was “below the threshold”. For the same binder, the pKd (DLG4_3, P78352; [1]) was “below the threshold”, the pKd (DLG3_1, Q92796; [1]) was “below the threshold” and the pKd (RAPGEF6, Q8TEU7; [1]) was “below the threshold”. The pKd (Inadl_6, Q8NI35; [1]) was “below the threshold”, the pKd (TIAM2, Q8IVF5; [1]) was 4.11 and the pKd (HTRA3, P83110; [1]) was 3.58. For the same binder, the pKd (MAGI2_3, Q86UL8; [1]) was “below the threshold”, the pKd (LNX1_1, Q8TBB1; [1]) was 3.83 and the pKd (LIN7B, Q9HAP6; [1]) was 3.62. The pKd (FRMPD2_2, Q68DX3; [1]) was 3.73, the pKd (TJP2_1, Q9UDY2; [1]) was “below the threshold” and the pKd (TJP1_3, Q07157; [1]) was “below the threshold”. For the same binder, the pKd (SNTG1, Q9NSN8; [1]) was “below the threshold”, the pKd (FRMPD2_1, Q68DX3; [1]) was “below the threshold” and the pKd (Inadl_1, Q8NI35; [1]) was “below the threshold”. The pKd (GRIP2_4, Q9C0E4; [1]) was “below the threshold”.

For NISYRRESAI [KCNJ4, P48050], the pKd (HTRA2, O43464; [1]) was “below the threshold”, the pKd (LAP2, Q96RT1; [1]) was “below the threshold” and the pKd (NHERF4_2, Q86UT5; [1]) was “below the threshold”. The pKd (PCLO, Q9Y6V0; [1]) was “below the threshold”, the pKd (DLG4_2, P78352; [1]) was 4.17 and the pKd (PDZD2_2, O15018; [1]) was 4.36. For the same binder, the pKd (TX1BP3, O14907; [1]) was 4.82, the pKd (Inadl_9, Q8NI35; [1]) was “below the threshold” and the pKd (SCRIB_3, Q14160; [1]) was 4.91. For the same binder, the pKd (GOPC, Q9HD26; [1]) was “below the threshold”, the pKd (PDLIM1, O00151; [1]) was “below the threshold” and the pKd (IL16_4, Q14005; [1]) was “below the threshold”. The pKd (DLG4_3, P78352; [1]) was 4.12, the pKd (DLG3_1, Q92796; [1]) was “below the threshold” and the pKd (RAPGEF6, Q8TEU7; [1]) was “below the threshold”. For the same binder, the pKd (Inadl_6, Q8NI35; [1]) was “below the threshold”, the pKd (TIAM2, Q8IVF5; [1]) was 4.07 and the pKd (HTRA3, P83110; [1]) was “below the threshold”. The pKd (MAGI2_3, Q86UL8; [1]) was “below the threshold”, the pKd (LNX1_1, Q8TBB1; [1]) was “below the threshold” and the pKd (LIN7B, Q9HAP6; [1]) was 3.74. The pKd (FRMPD2_2, Q68DX3; [1]) was “below the threshold”, the pKd (TJP2_1, Q9UDY2; [1]) was “below the threshold” and the pKd (TJP1_3, Q07157; [1]) was “below the threshold”. For the same binder, the pKd (SNTG1, Q9NSN8; [1]) was “below the threshold”, the pKd (FRMPD2_1, Q68DX3; [1]) was “below the threshold” and the pKd (Inadl_1, Q8NI35; [1]) was “below the threshold”. The pKd (GRIP2_4, Q9C0E4; [1]) was “below the threshold”.

With QDEKVKESYV [ABCA1, O95477] the pKd (HTRA2, O43464; [2]) was “below the threshold”, the pKd (LAP2, Q96RT1; [2]) was 4.41 and the pKd (NHERF4_2, Q86UT5; [2]) was “below the threshold”. The pKd (PCLO, Q9Y6V0; [2]) was “below the threshold”, the pKd (DLG4_2, P78352; [2]) was 5.25 and the pKd (PDZD2_2, O15018; [2]) was 5.66. It also gave a pKd (TX1BP3, O14907; [2]) of 4.74, a pKd (Inadl_9, Q8NI35; [2]) of 4.29 and a pKd (SCRIB_3, Q14160; [2]) of 4.45. The pKd (GOPC, Q9HD26; [2]) was 4.28, the pKd (PDLIM1, O00151; [2]) was “below the threshold” and the pKd (IL16_4, Q14005; [2]) was “below the threshold”. For the same binder, the pKd (DLG4_3, P78352; [2]) was 3.78, the pKd (DLG3_1, Q92796; [2]) was 4.29 and the pKd (RAPGEF6, Q8TEU7; [2]) was “below the threshold”. The pKd (Inadl_6, Q8NI35; [2]) was 4.29, the pKd (TIAM2, Q8IVF5; [2]) was “below the threshold” and the pKd (HTRA3, P83110; [2]) was 3.55. The pKd (MAGI2_3, Q86UL8; [2]) was 4.85, the pKd (LNX1_1, Q8TBB1; [2]) was 4.38 and the pKd (LIN7B, Q9HAP6; [2]) was 4.15. The pKd (FRMPD2_2, Q68DX3; [2]) was 5.31, the pKd (TJP2_1, Q9UDY2; [2]) was 4.36 and the pKd (TJP1_3, Q07157; [2]) was “below the threshold”. The pKd (SNTG1, Q9NSN8; [2]) was 5.24, the pKd (FRMPD2_1, Q68DX3; [2]) was 3.53 and the pKd (Inadl_1, Q8NI35; [2]) was “below the threshold”. The pKd (GRIP2_4, Q9C0E4; [2]) was “below the threshold”.

With RYEDTTLVEDTVL [WNV-NS5, Q9Q6P4] the pKd (HTRA2, O43464; [3]) was “below the threshold”, the pKd (LAP2, Q96RT1; [3]) was “below the threshold” and the pKd (NHERF4_2, Q86UT5; [3]) was “below the threshold”. For the same binder, the pKd (PCLO, Q9Y6V0; [3]) was “below the threshold”, the pKd (DLG4_2, P78352; [3]) was 3.7 and the pKd (PDZD2_2, O15018; [3]) was 4.42. The pKd (TX1BP3, O14907; [3]) was “below the threshold”, the pKd (Inadl_9, Q8NI35; [3]) was “below the threshold” and the pKd (SCRIB_3, Q14160; [3]) was 3.97. For the same binder, the pKd (GOPC, Q9HD26; [3]) was 3.71, the pKd (PDLIM1, O00151; [3]) was “below the threshold” and the pKd (IL16_4, Q14005; [3]) was 3.56. The pKd (DLG4_3, P78352; [3]) was “below the threshold”, the pKd (DLG3_1, Q92796; [3]) was “below the threshold” and the pKd (RAPGEF6, Q8TEU7; [3]) was “below the threshold”. For the same binder, the pKd (Inadl_6, Q8NI35; [3]) was “below the threshold”, the pKd (TIAM2, Q8IVF5; [3]) was “below the threshold” and the pKd (HTRA3, P83110; [3]) was “below the threshold”. For the same binder, the pKd (MAGI2_3, Q86UL8; [3]) was “below the threshold”, the pKd (LNX1_1, Q8TBB1; [3]) was 3.74 and the pKd (LIN7B, Q9HAP6; [3]) was “below the threshold”. The pKd (FRMPD2_2, Q68DX3; [3]) was “below the threshold”, the pKd (TJP2_1, Q9UDY2; [3]) was “below the threshold” and the pKd (TJP1_3, Q07157; [3]) was “below the threshold”. The pKd (SNTG1, Q9NSN8; [3]) was “below the threshold”, the pKd (FRMPD2_1, Q68DX3; [3]) was “below the threshold” and the pKd (Inadl_1, Q8NI35; [3]) was “below the threshold”. The pKd (GRIP2_4, Q9C0E4; [3]) was “below the threshold”.
